According to the supplement of paper PMC10126150:
± gives the standard deviation of the averaged measurements.

test system: ATP; experiment: switch fluorescence ratio, 500 uM ATP over buffer (Cy3 cluster intensity, sum of 5 cycles each) (fold (ratio)); higher = stronger signal-on switching upon ATP binding; sequences stand for … in TCGTCGGCAGCGTCAGATGTGTATAAGAGACAGTTTTTTTTTTTTTTTTTTTTTTTTT…TC; settings: aptamer strand: ATP DNA aptamer (quencher-CACCTGGGGGAGTATTGCGGAGGAAGG + anchor), 100 nM annealed; ATP concentration: 500 uM
Summary of the method: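 Clusters carrying Cy3-labelled switching strands on a modified Illumina MiSeq flow-cell were annealed to 100 nM quencher-labelled ATP aptamer and imaged in selection buffer. They were imaged again after 15 min with 500 uM ATP at 22 °C, over five buffer/ATP cycles with NaOH stripping and re-annealing in between. For each cluster, the fluorescence ratio is the summed Cy3 intensity of the target cycles divided by that of the buffer cycles, averaged per switch-domain sequence. Clusters outside 100-1000 RFU were left out.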
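Also: ATP exposure 15 min at 22 °C before imaging.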

| Sequence | switch fluorescence ratio |
| --- | --- |
| CCGGCTAGTG | 1.03 ± 0.034 |
| CCGGCTGAGG | 1.03 ± 0.017 |
| CCGGCTTTCC | 1.15 ± 0.027 |
| CCGGGATCTT | 1.05 ± 0.013 |
| CCGGGCCAGG | 1.255 ± 0.0081 |
| CCGGGCGTGG | 1.09 ± 0.025 |
| CCGGGCTCTG | 1.06 ± 0.013 |
| CCGGGGAGTG | 1.14 ± 0.25 |
| CCGGGGCCTG | 1.05 ± 0.095 |
| CCGGGGGACC | 1.04 ± 0.021 |
| CCGGGGGCGA | 2.64 ± 1.4 |
| CCGGGGGCTG | 1.04 ± 0.068 |
| CCGGGGGGGA | 1.13 ± 0.23 |
| CCGGGGGGGC | 1.32 ± 0.66 |
| CCGGGGGTTC | 1.05 ± 0.062 |
| CCGGGGGTTG | 1.04 ± 0.057 |
| CCGGGGTCGA | 1.57 ± 0.77 |
| CCGGGTATCC | 1.19 ± 0.18 |
| CCGGGTCTGG | 0.992 ± 0.013 |
| CCGGGTGCTA | 2.36 ± 1.4 |
| CCGGGTGGGT | 1.11 ± 0.13 |
| CCGGGTGGTA | 1.17 ± 0.015 |
| CCGGTAAGTC | 1.27 ± 0.026 |
| CCGGTAGGGT | 1.36 ± 0.61 |
| CCGGTATTTG | 1.021 ± 0.0077 |

| Sequence | switch fluorescence ratio |
| --- | --- |
| CCGGTCTATT | 1 ± 0.048 |
| CCGGTCTTGA | 1.01 ± 0.039 |
| CCGGTGTGTA | 1.03 ± 0.029 |
| CCGGTGTGTT | 1.03 ± 0.086 |
| CCGGTTAAGC | 1.2 ± 0.057 |
| CCGGTTAGGG | 0.991 ± 0.029 |
| CCGGTTCAGG | 1.05 ± 0.016 |
| CCGGTTGTGG | 1.01 ± 0.02 |
| CCGGTTGTTG | 1.027 ± 0.0079 |
| CCGTATGTTT | 1.11 ± 0.091 |
| CCGTCATCTG | 1.04 ± 0.029 |
| CCGTCATTGT | 1.11 ± 0.02 |
| CCGTCTACGC | 1.16 ± 0.048 |
| CCGTCTGTTG | 1.03 ± 0.029 |
| CCGTGAATAT | 2.21 ± 0.083 |
| CCGTGGAAAC | 1.14 ± 0.026 |
| CCGTGGTATA | 1.151 ± 0.0068 |
| CCGTGTATTT | 1.05 ± 0.052 |
| CCGTGTCATT | 1.013 ± 0.0023 |
| CCGTGTGGCT | 1.027 ± 0.0022 |
| CCGTGTGGGT | 1.01 ± 0.018 |
| CCGTGTGTCA | 1.03 ± 0.029 |
| CCGTGTTTCT | 0.9916 ± 0.0033 |
| CCGTTCTCGC | 1.31 ± 0.048 |
| CCGTTGAGCT | 1.112 ± 0.01 |

| Sequence | switch fluorescence ratio |
| --- | --- |
| CCGTTGGCCT | 1.042 ± 0.0065 |
| CCGTTGTGCG | 1.02 ± 0.027 |
| CCGTTGTGGT | 1.05 ± 0.068 |
| CCGTTTAGAT | 1.01 ± 0.011 |
| CCGTTTTAGC | 1.12 ± 0.12 |
| CCGTTTTTGT | 0.9922 ± 0.006 |
| CCTACGGTGG | 1.04 ± 0.04 |
| CCTACTTGGC | 1.16 ± 0.05 |
| CCTAGGCTTT | 1.117 ± 0.0063 |
| CCTAGGTCAT | 1.12 ± 0.15 |
| CCTATGCAGT | 5.33 ± 0.3 |
| CCTATGGGGG | 1.49 ± 0.66 |
| CCTATGTGCT | 1.038 ± 0.0059 |
| CCTATTAGG | 1 ± 0.011 |
| CCTCAGGGGC | 2.39 ± 0.57 |
| CCTCATTTTT | 0.988 ± 0.0099 |
| CCTCCAGGGT | 2.5 ± 0.92 |
| CCTCGTAGGT | 1.07 ± 0.024 |
| CCTCTCCGTA | 1.32 ± 0.083 |
| CCTCTGGGGG | 1.32 ± 0.19 |
| CCTGAGTTCG | 1.39 ± 0.21 |
| CCTGCGTCTG | 1.9 ± 0.065 |
| CCTGGAGTTA | 1.04 ± 0.1 |
| CCTGGCGTCG | 1.005 ± 0.0083 |
| CCTGGGGAGT | 1.04 ± 0.034 |

| Sequence | switch fluorescence ratio |
| --- | --- |
| CCTGGGGATC | 1.15 ± 0.098 |
| CCTGGGGCCA | 1.03 ± 0.038 |
| CCTGGGGGTG | 1.14 ± 0.074 |
| CCTGGGGGTT | 1.6 ± 0.79 |
| CCTGGTCGAC | 0.986 ± 0.015 |
| CCTGGTGAGG | 1.04 ± 0.072 |
| CCTGGTGCAT | 2.15 ± 0.056 |
| CCTGGTTGTG | 0.992 ± 0.029 |
| CCTGTGAGTT | 0.986 ± 0.012 |
| CCTGTTGGGA | 1.01 ± 0.037 |
| CCTGTTTCTA | 1.17 ± 0.23 |
| CCTGTTTGTA | 1.01 ± 0.066 |
| CCTTACGGCA | 1.53 ± 0.068 |
| CCTTACTTTT | 0.998 ± 0.036 |
| CCTTATTAGG | 1.002 ± 0.0075 |
| CCTTGCACG | 1.18 ± 0.22 |
| CCTTGGCCGA | 1.17 ± 0.0041 |
| CCTTGGGCTT | 1.04 ± 0.031 |
| CCTTGGTACA | 1.03 ± 0.015 |
| CCTTGGTGAG | 1.01 ± 0.014 |
| CCTTTAGGTT | 1 ± 0.049 |
| CCTTTCATGC | 1.65 ± 0.16 |
| CCTTTGGCAG | 1.22 ± 0.06 |
| CCTTTGTGAT | 1.499 ± 0.0089 |
| CCTTTTATTC | 1.01 ± 0.03 |

| Sequence | switch fluorescence ratio |
| --- | --- |
| CCTTTTCAGG | 1.03 ± 0.023 |
| CCTTTTGCGC | 1.31 ± 0.012 |
| CCTTTTGGTG | 1.38 ± 0.44 |
| CCTTTTGTAC | 1.386 ± 0.011 |
| CCTTTTTCTT | 1.04 ± 0.029 |
| CCTTTTTGT | 0.993 ± 0.027 |
| CGAAAAAGAT | 1.04 ± 0.079 |
| CGAAAAGTTG | 1.01 ± 0.048 |
| CGAAAGCTTG | 1.05 ± 0.02 |
| CGAAAGTTTA | 1.008 ± 0.0021 |
| CGAAATCCTT | 1.05 ± 0.039 |
| CGAACGAAAA | 0.992 ± 0.04 |
| CGAACGGGGG | 1 ± 0.032 |
| CGAACTGGGT | 1.03 ± 0.028 |
| CGAACTGTGG | 0.9673 ± 0.009 |
| CGAACTTGGA | 0.9882 ± 0.0074 |
| CGAAGATTTT | 1.05 ± 0.022 |
| CGAAGGGACG | 1.05 ± 0.081 |
| CGAAGGGGGA | 0.995 ± 0.021 |
| CGAAGGTTTT | 1.02 ± 0.015 |
| CGAAGTACAT | 1.16 ± 0.0019 |
| CGAAGTAGAG | 1.029 ± 0.0064 |
| CGAATAATCA | 0.982 ± 0.053 |
| CGAATAGCGG | 0.9757 ± 0.002 |
| CGAATATTAA | 0.994 ± 0.013 |

| Sequence | switch fluorescence ratio |
| --- | --- |
| CGAATATTTG | 0.996 ± 0.026 |
| CGAATCAATC | 2.51 ± 0.44 |
| CGAATGTTCG | 0.998 ± 0.035 |
| CGAATTAAAC | 0.99 ± 0.029 |
| CGAATTTTTG | 0.982 ± 0.018 |
| CGACAAAGCC | 1.28 ± 0.014 |
| CGACGAAACT | 1.15 ± 0.021 |
| CGACGAGGCT | 1.21 ± 0.024 |
| CGACGGGCAG | 1.01 ± 0.042 |
| CGACGTGGGA | 1.042 ± 0.0055 |
| CGACGTGTGG | 1.02 ± 0.03 |
| CGACTGTTTT | 1.02 ± 0.015 |
| CGACTTACAT | 1.24 ± 0.057 |
| CGAGAAAGAG | 0.983 ± 0.077 |
| CGAGAAGTTT | 1.005 ± 0.0081 |
| CGAGACCACA | 1.05 ± 0.043 |
| CGAGACGGGG | 0.959 ± 0.042 |
| CGAGAGCCAC | 1.13 ± 0.047 |
| CGAGATGTGG | 1.02 ± 0.011 |
| CGAGCATGTA | 1.168 ± 0.0052 |
| CGAGCCTTGT | 1.01 ± 0.04 |
| CGAGCGGGGG | 1.01 ± 0.047 |
| CGAGCTGCAT | 1.08 ± 0.011 |
| CGAGGCCTGG | 1 ± 0.011 |
| CGAGGCTCCG | 1.05 ± 0.026 |

| Sequence | switch fluorescence ratio |
| --- | --- |
| CGAGGGAGTA | 0.993 ± 0.035 |
| CGAGGGGATT | 1.25 ± 0.54 |
| CGAGGGGTTC | 0.9908 ± 0.0044 |
| CGAGGGGTTG | 1 ± 0.04 |
| CGAGGGTAGT | 1.01 ± 0.025 |
| CGAGGGTCTC | 1.01 ± 0.029 |
| CGAGGTACTG | 1.01 ± 0.0034 |
| CGAGGTAGCT | 1 ± 0.021 |
| CGAGGTAGGG | 1.01 ± 0.073 |
| CGAGGTGGCT | 1.01 ± 0.028 |
| CGAGGTGGGA | 0.9972 ± 0.0025 |
| CGAGTACTGT | 0.994 ± 0.025 |
| CGAGTAGAGG | 1.02 ± 0.026 |
| CGAGTAGTCA | 0.994 ± 0.018 |
| CGAGTATGGG | 0.9859 ± 0.0011 |
| CGAGTATTAC | 1.09 ± 0.04 |
| CGAGTCCAGG | 6.48 ± 0.097 |
| CGAGTCTTTG | 1.03 ± 0.059 |
| CGAGTGGGTG | 0.996 ± 0.018 |
| CGAGTGTCAG | 0.976 ± 0.028 |
| CGAGTTATTG | 1.08 ± 0.094 |
| CGAGTTCGTT | 1 ± 0.025 |
| CGATAAAGAG | 1.02 ± 0.013 |
| CGATAACGTC | 0.992 ± 0.011 |
| CGATAATTTG | 0.994 ± 0.015 |

| Sequence | switch fluorescence ratio |
| --- | --- |
| CGATACGATG | 0.995 ± 0.011 |
| CGATACTTGA | 0.99 ± 0.038 |
| CGATAGCAGC | 2.43 ± 0.52 |
| CGATAGGGGG | 1.01 ± 0.022 |
| CGATAGTTAG | 0.986 ± 0.044 |
| CGATATAAGT | 1 ± 0.025 |
| CGATATAGAC | 1.06 ± 0.013 |
| CGATATCCAC | 1.07 ± 0.013 |
| CGATCACCTG | 1.02 ± 0.063 |
| CGATCCGGCG | 1.08 ± 0.16 |
| CGATCCTATG | 0.969 ± 0.045 |
| CGATCGGATG | 1.03 ± 0.023 |
| CGATCTAGTA | 0.97 ± 0.015 |
| CGATGAGGGT | 1.01 ± 0.029 |
| CGATGGACGG | 1.01 ± 0.033 |
| CGATGGGCTA | 1.02 ± 0.056 |
| CGATGGGTGC | 0.946 ± 0.015 |
| CGATGGTAGA | 1.03 ± 0.027 |
| CGATGGTGGC | 1.073 ± 0.0067 |
| CGATGGTGGG | 0.987 ± 0.0088 |
| CGATGTCACG | 1 ± 0.033 |
| CGATGTGCCC | 0.983 ± 0.024 |
| CGATGTGCGG | 1.03 ± 0.062 |
| CGATGTTGGG | 0.99 ± 0.018 |
| CGATGTTTTC | 1.03 ± 0.073 |
